From publication doi:10.1101/2023.05.10.540161 (bioRxiv, 2023) come the findings set out here.

The series deals with the molecule itself. The series is described as follows: crystal structure; His6-CENP-E 2452-2598 at 11 mg/ml, crystallized in 0.2 M potassium citrate tribasic monohydrate, 20% w/v PEG 3350 pH 8.3, room temperature; a CENP-E dimer in the asymmetric unit.

B1: His6-CENP-E_(2452-2598) (domain or fragment, human, UniProt Q02224-1 2452-2598, looked up)
chain: PYKEEIEDLKMKLVKIDLEKMKNAKEFEKEISATKATVEYQKEVIRLLRENLRRSQQAQDTSVISEHTDPQPSNKPLTCGGGSGIVQNTKALILKSEHIRLEKEISKLKQQNEQLIKQKNELLSNNQHLSNEVKTWKERTLKREAHK
notes: CENP-E (kinesin-7), human, residues 2452-2598, from CENP-E transcript variant 1 (NM_001813.2); in the crystal only K2454 to S2506 were seen (likely C-terminal degradation during crystallization); Cloned into pET3aTr; also called minimal corona targeting domain; corona-targeting domain of CENP-E; source: E. coli BL21, purified as previously described (Legal et al., 2020)
As for B1, the “stoichiometry N” value was found to be 2.
